In the supplement of paper PMC10567573:

B1: C9orf9 (parent)
chain: LTKASLKPRGCSKPPWRPPGGKL

Variants of: B1
Assay: protein stability index of a GFP-peptide fusion (GPS, HEK-293T) (PSI 1-6); higher = more stable
Settings: c terminus: native
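Also: lentivirally expressed fusions sorted by FACS into six bins by GFP to DsRed ratio, PSI derived from sequencing read proportions per bin multiplied by bin number.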

First: LTKMSLKPRGCSKPPWRPPGGKL [A4M]
Second: LTKTSLKPRGCSKPPWRPPGGKL [A4T]
The protein stability index of the first is lower: 1.69 for the first, 1.78 for the second.

Compared with LTKQSLKPRGCSKPPWRPPGGKL [A4Q], LTKHSLKPRGCSKPPWRPPGGKL [A4H] is higher in protein stability index: 1.65 for the first, 1.96 for the second.

Compared with LTKVSLKPRGCSKPPWRPPGGKL [A4V], LTKKSLKPRGCSKPPWRPPGGKL [A4K] is higher in protein stability index: 1.58 for the first, 1.8 for the second.

First: LTKGSLKPRGCSKPPWRPPGGKL [A4G]
Second: LTKSSLKPRGCSKPPWRPPGGKL [A4S]
The protein stability index of the first is lower: 1.36 for the first, 2.02 for the second.

Compared with LTKLSLKPRGCSKPPWRPPGGKL [A4L], LTKNSLKPRGCSKPPWRPPGGKL [A4N] is higher in protein stability index: 1.08 for the first, 2 for the second.

Compared with LTKPSLKPRGCSKPPWRPPGGKL [A4P], LTKFSLKPRGCSKPPWRPPGGKL [A4F] is lower in protein stability index: 3.55 for the first, 1.75 for the second.

First: LTKWSLKPRGCSKPPWRPPGGKL [A4W]
Second: LTKCSLKPRGCSKPPWRPPGGKL [A4C]
The protein stability index of the first is higher: 2.44 for the first, 1.63 for the second.

Going from LTKISLKPRGCSKPPWRPPGGKL [A4I] to LTKDSLKPRGCSKPPWRPPGGKL [A4D], the protein stability index falls from 1.61 to 1.25.

Going from LTKASYKPRGCSKPPWRPPGGKL [L6Y] to LTKASPKPRGCSKPPWRPPGGKL [L6P], the protein stability index falls from 2.04 to 1.9.

Going from LTKASTKPRGCSKPPWRPPGGKL [L6T] to LTKASDKPRGCSKPPWRPPGGKL [L6D], the protein stability index falls from 1.87 to 1.5.

Going from LTKASSKPRGCSKPPWRPPGGKL [L6S] to LTKASQKPRGCSKPPWRPPGGKL [L6Q], the protein stability index rises from 2.47 to 4.53.

Compared with LTKASHKPRGCSKPPWRPPGGKL [L6H], LTKASIKPRGCSKPPWRPPGGKL [L6I] is lower in protein stability index: 1.89 for the first, 1.37 for the second.

First: LTKASFKPRGCSKPPWRPPGGKL [L6F]
Second: LTKASRKPRGCSKPPWRPPGGKL [L6R]
The protein stability index of the first is higher: 2.35 for the first, 2.17 for the second.

Compared with LTKASLKPEGCSKPPWRPPGGKL [R9E], LTKASLKPNGCSKPPWRPPGGKL [R9N] is higher in protein stability index: 1.9 for the first, 2.07 for the second.

Compared with LTKASLKPLGCSKPPWRPPGGKL [R9L], LTKASLKPVGCSKPPWRPPGGKL [R9V] is lower in protein stability index: 2.96 for the first, 2.91 for the second.

Compared with LTKASLKPAGCSKPPWRPPGGKL [R9A], LTKASLKPPGCSKPPWRPPGGKL [R9P] is lower in protein stability index: 1.7 for the first, 1.34 for the second.

First: LTKASLKPYGCSKPPWRPPGGKL [R9Y]
Second: LTKASLKPCGCSKPPWRPPGGKL [R9C]
The protein stability index of the first is lower: 3.3 for the first, 3.36 for the second.

Going from LTKASLKPWGCSKPPWRPPGGKL [R9W] to LTKASLKPFGCSKPPWRPPGGKL [R9F], the protein stability index falls from 2.31 to 1.15.

Compared with LTKASLKPIGCSKPPWRPPGGKL [R9I], LTKASLKPTGCSKPPWRPPGGKL [R9T] is lower in protein stability index: 1.85 for the first, 1.45 for the second.

Compared with LTKASLKPMGCSKPPWRPPGGKL [R9M], LTKASLKPQGCSKPPWRPPGGKL [R9Q] is higher in protein stability index: 2.33 for the first, 2.68 for the second.

First: LTKASLKPGGCSKPPWRPPGGKL [R9G]
Second: LTKASLKPSGCSKPPWRPPGGKL [R9S]
The protein stability index of the first is lower: 1.37 for the first, 1.95 for the second.

First: LTKASLKPHGCSKPPWRPPGGKL [R9H]
Second: LTKASLLPRGCSKPPWRPPGGKL [K7L]
The protein stability index of the first is lower: 1.35 for the first, 1.69 for the second.

Compared with LTKASLNPRGCSKPPWRPPGGKL [K7N], LTKASLAPRGCSKPPWRPPGGKL [K7A] is higher in protein stability index: 2.32 for the first, 2.72 for the second.

Going from LTKASLHPRGCSKPPWRPPGGKL [K7H] to LTKASLTPRGCSKPPWRPPGGKL [K7T], the protein stability index falls from 2.31 to 2.25.

First: LTKASLEPRGCSKPPWRPPGGKL [K7E]
Second: LTKASLIPRGCSKPPWRPPGGKL [K7I]
The protein stability index of the first is lower: 1.51 for the first, 1.56 for the second.

First: LTKASLVPRGCSKPPWRPPGGKL [K7V]
Second: LTKASLMPRGCSKPPWRPPGGKL [K7M]
The protein stability index of the first is lower: 2.25 for the first, 2.66 for the second.

Going from LTKASLFPRGCSKPPWRPPGGKL [K7F] to LTKASLGPRGCSKPPWRPPGGKL [K7G], the protein stability index falls from 1.78 to 1.51.

First: LTKASLCPRGCSKPPWRPPGGKL [K7C]
Second: LTKASLSPRGCSKPPWRPPGGKL [K7S]
The protein stability index of the first is higher: 1.68 for the first, 1.53 for the second.

Going from LTKASLKMRGCSKPPWRPPGGKL [P8M] to LTKASLKQRGCSKPPWRPPGGKL [P8Q], the protein stability index rises from 2.53 to 4.76.

First: LTKASLKLRGCSKPPWRPPGGKL [P8L]
Second: LTKASLKWRGCSKPPWRPPGGKL [P8W]
The protein stability index of the first is lower: 2.77 for the first, 4.77 for the second.

Compared with LTKASLKARGCSKPPWRPPGGKL [P8A], LTKASLKHRGCSKPPWRPPGGKL [P8H] is lower in protein stability index: 3.56 for the first, 1.65 for the second.

Going from LTKASLKFRGCSKPPWRPPGGKL [P8F] to LTKASLKYRGCSKPPWRPPGGKL [P8Y], the protein stability index falls from 2.51 to 2.15.

First: LTKAKLKPRGCSKPPWRPPGGKL [S5K]
Second: LTKATLKPRGCSKPPWRPPGGKL [S5T]
The protein stability index of the first is higher: 2.43 for the first, 2.08 for the second.

First: LTKAILKPRGCSKPPWRPPGGKL [S5I]
Second: LTKAHLKPRGCSKPPWRPPGGKL [S5H]
The protein stability index of the first is higher: 2.9 for the first, 1.55 for the second.

Compared with LTKAVLKPRGCSKPPWRPPGGKL [S5V], LTKAALKPRGCSKPPWRPPGGKL [S5A] is higher in protein stability index: 2.5 for the first, 2.57 for the second.

Compared with LTKAQLKPRGCSKPPWRPPGGKL [S5Q], LTKAMLKPRGCSKPPWRPPGGKL [S5M] is lower in protein stability index: 3.27 for the first, 1.83 for the second.

Compared with LTKACLKPRGCSKPPWRPPGGKL [S5C], LTKAGLKPRGCSKPPWRPPGGKL [S5G] is lower in protein stability index: 1.86 for the first, 1.24 for the second.

First: LTKANLKPRGCSKPPWRPPGGKL [S5N]
Second: LTKAWLKPRGCSKPPWRPPGGKL [S5W]
The protein stability index of the first is lower: 1.99 for the first, 3.95 for the second.

First: LTKADLKPRGCSKPPWRPPGGKL [S5D]
Second: LTKAPLKPRGCSKPPWRPPGGKL [S5P]
The protein stability index of the first is lower: 1.19 for the first, 2.21 for the second.

First: LTKAFLKPRGCSKPPWRPPGGKL [S5F]
Second: LTKALLKPRGCSKPPWRPPGGKL [S5L]
The protein stability index of the first is lower: 2.03 for the first, 2.21 for the second.

Going from LTKAELKPRGCSKPPWRPPGGKL [S5E] to LTSASLKPRGCSKPPWRPPGGKL [K3S], the protein stability index rises from 1.81 to 1.91.

Going from LTVASLKPRGCSKPPWRPPGGKL [K3V] to LTGASLKPRGCSKPPWRPPGGKL [K3G], the protein stability index falls from 2.86 to 1.74.

Going from LTPASLKPRGCSKPPWRPPGGKL [K3P] to LTNASLKPRGCSKPPWRPPGGKL [K3N], the protein stability index falls from 2.66 to 2.08.

Going from LTLASLKPRGCSKPPWRPPGGKL [K3L] to LTTASLKPRGCSKPPWRPPGGKL [K3T], the protein stability index falls from 2.36 to 2.19.

Compared with LTEASLKPRGCSKPPWRPPGGKL [K3E], LTQASLKPRGCSKPPWRPPGGKL [K3Q] is higher in protein stability index: 1.97 for the first, 2.6 for the second.

First: LTHASLKPRGCSKPPWRPPGGKL [K3H]
Second: LTFASLKPRGCSKPPWRPPGGKL [K3F]
The protein stability index of the first is higher: 2.28 for the first, 1.51 for the second.

First: LTAASLKPRGCSKPPWRPPGGKL [K3A]
Second: LTDASLKPRGCSKPPWRPPGGKL [K3D]
The protein stability index of the first is lower: 1.38 for the first, 2.39 for the second.

First: LTYASLKPRGCSKPPWRPPGGKL [K3Y]
Second: HTKASLKPRGCSKPPWRPPGGKL [L1H]
The protein stability index of the first is higher: 2.73 for the first, 1.82 for the second.
